The text below walks through data of paper PMC6156764.

This assay has as its target endogenous TEA domain protein (TEAD), detected with a pan-TEAD antibody, P28347. Put plainly: co-immunoprecipitation (α-Flag) with western blot quantification. The conditions noted are these: chain shown with the change; lysates of transiently transfected HeLa cells; n = 3; parent: est. 1.0; read off a plot. For orientation: A western blot detects proteins with antibodies after separation by electrophoresis.

endogenous TEA domain protein (TEAD), detected with a pan-TEAD antibody, P28347, sequence (P28347 whole entry, the tested form may be a part): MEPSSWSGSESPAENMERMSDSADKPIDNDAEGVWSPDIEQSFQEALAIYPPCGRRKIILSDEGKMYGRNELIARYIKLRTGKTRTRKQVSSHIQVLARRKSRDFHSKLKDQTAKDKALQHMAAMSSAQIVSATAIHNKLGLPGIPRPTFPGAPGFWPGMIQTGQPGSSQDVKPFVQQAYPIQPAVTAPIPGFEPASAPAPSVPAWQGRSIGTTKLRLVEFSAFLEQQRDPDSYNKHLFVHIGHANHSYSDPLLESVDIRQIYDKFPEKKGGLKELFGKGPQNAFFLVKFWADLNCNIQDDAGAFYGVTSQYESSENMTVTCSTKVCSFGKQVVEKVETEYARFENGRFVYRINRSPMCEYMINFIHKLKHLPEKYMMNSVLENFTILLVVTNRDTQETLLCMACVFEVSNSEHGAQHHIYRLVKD

B1: Flag-tagged wild-type GBP-1 fragment α7–13 (residues 311–582), P32455 S404A; D405A; R406A; C407A; S408A; L410A (protein)
chain: CMENAVLALAQIENSAAVQKAIAHYEQQMGQKVQLPTETLQELLDLHRDSEREAIEVFIRSSFKDVDHLFQKELAAQLEKKRDDFCKQNQEASAAAAAAALQVIFSPLEEEVKAGIYSKPGGYRLFVQKLQDLKKKYYEEPRKGIQAEEILQTYLKSKESMTDAILQTDQTLTEKEKEIEVERVKAESAQASAKMLQEMQRKNEQMMEQKERSYQEHLKQLTEKMENDRVQLLKEQERTLALKLQEQEQLLKEGFQKESRIMKNEIQDLQTK
Turning to B1, the ratio to parent was 1.1.

B2: Flag-tagged wild-type GBP-1 fragment α7–13 (residues 311–582), P32455 K390A; K391A; R392A; D393A; D394A; F395A; C396A (protein)
chain: CMENAVLALAQIENSAAVQKAIAHYEQQMGQKVQLPTETLQELLDLHRDSEREAIEVFIRSSFKDVDHLFQKELAAQLEAAAAAAAKQNQEASSDRCSALLQVIFSPLEEEVKAGIYSKPGGYRLFVQKLQDLKKKYYEEPRKGIQAEEILQTYLKSKESMTDAILQTDQTLTEKEKEIEVERVKAESAQASAKMLQEMQRKNEQMMEQKERSYQEHLKQLTEKMENDRVQLLKEQERTLALKLQEQEQLLKEGFQKESRIMKNEIQDLQTK
For the molecule B2, the ratio to parent turned out to be 1.6.

B3: Flag-tagged wild-type GBP-1 fragment α7–13 (residues 311–582), P32455 L411A; Q412A; V413A; I414A; F415A; S416A; P417A (protein)
chain: CMENAVLALAQIENSAAVQKAIAHYEQQMGQKVQLPTETLQELLDLHRDSEREAIEVFIRSSFKDVDHLFQKELAAQLEKKRDDFCKQNQEASSDRCSALAAAAAAALEEEVKAGIYSKPGGYRLFVQKLQDLKKKYYEEPRKGIQAEEILQTYLKSKESMTDAILQTDQTLTEKEKEIEVERVKAESAQASAKMLQEMQRKNEQMMEQKERSYQEHLKQLTEKMENDRVQLLKEQERTLALKLQEQEQLLKEGFQKESRIMKNEIQDLQTK
On to B3, for which the ratio to parent stood at 1.2.

B4: Flag-tagged wild-type GBP-1 fragment α7–13 (residues 311–582), P32455 L418A; E419A; E420A; E421A; V422A; K423A (protein)
chain: CMENAVLALAQIENSAAVQKAIAHYEQQMGQKVQLPTETLQELLDLHRDSEREAIEVFIRSSFKDVDHLFQKELAAQLEKKRDDFCKQNQEASSDRCSALLQVIFSPAAAAAAAGIYSKPGGYRLFVQKLQDLKKKYYEEPRKGIQAEEILQTYLKSKESMTDAILQTDQTLTEKEKEIEVERVKAESAQASAKMLQEMQRKNEQMMEQKERSYQEHLKQLTEKMENDRVQLLKEQERTLALKLQEQEQLLKEGFQKESRIMKNEIQDLQTK
Turning to B4, the ratio to parent was 0.95.

B5: Flag-tagged wild-type GBP-1 fragment α7–13 (residues 311–582), P32455 V376A; D377A; H378A; L379A; F380A; Q381A; K382A (protein)
chain: CMENAVLALAQIENSAAVQKAIAHYEQQMGQKVQLPTETLQELLDLHRDSEREAIEVFIRSSFKDAAAAAAAELAAQLEKKRDDFCKQNQEASSDRCSALLQVIFSPLEEEVKAGIYSKPGGYRLFVQKLQDLKKKYYEEPRKGIQAEEILQTYLKSKESMTDAILQTDQTLTEKEKEIEVERVKAESAQASAKMLQEMQRKNEQMMEQKERSYQEHLKQLTEKMENDRVQLLKEQERTLALKLQEQEQLLKEGFQKESRIMKNEIQDLQTK
Regarding B5, the ratio to parent is 0.37.

B6: Flag-tagged wild-type GBP-1 fragment α7–13 (residues 311–582), P32455 K397A; Q398A; N399A; Q400A; E401A; S403A (protein)
chain: CMENAVLALAQIENSAAVQKAIAHYEQQMGQKVQLPTETLQELLDLHRDSEREAIEVFIRSSFKDVDHLFQKELAAQLEKKRDDFCAAAAAAASDRCSALLQVIFSPLEEEVKAGIYSKPGGYRLFVQKLQDLKKKYYEEPRKGIQAEEILQTYLKSKESMTDAILQTDQTLTEKEKEIEVERVKAESAQASAKMLQEMQRKNEQMMEQKERSYQEHLKQLTEKMENDRVQLLKEQERTLALKLQEQEQLLKEGFQKESRIMKNEIQDLQTK
As for B6, the ratio to parent is 1.7.

B7: Flag-tagged wild-type GBP-1 fragment α7–13 (residues 311–582), P32455 E383A; L384A; Q387A; L388A; E389A (protein)
chain: CMENAVLALAQIENSAAVQKAIAHYEQQMGQKVQLPTETLQELLDLHRDSEREAIEVFIRSSFKDVDHLFQKAAAAAAAKKRDDFCKQNQEASSDRCSALLQVIFSPLEEEVKAGIYSKPGGYRLFVQKLQDLKKKYYEEPRKGIQAEEILQTYLKSKESMTDAILQTDQTLTEKEKEIEVERVKAESAQASAKMLQEMQRKNEQMMEQKERSYQEHLKQLTEKMENDRVQLLKEQERTLALKLQEQEQLLKEGFQKESRIMKNEIQDLQTK
For the molecule B7, the ratio to parent stood at 1.6.
